Data: US20190218308A1 (INNATE PHARMA, published 2019)
Substitutions are numbered along the chain they refer to.

What was measured:
CD39 mutant 15 = biological target: T1, CD39 mutant 15 (human, UniProt P49961 1-510); test: flow cytometry, Hek-293T cells transfected with CD39 mutant 15 (panel M15), table under the panel; unstained (US) 8,98; antibody concentration not shown
T1 construct: Expressed on Hek-293T cells; also called M15
T1 chain: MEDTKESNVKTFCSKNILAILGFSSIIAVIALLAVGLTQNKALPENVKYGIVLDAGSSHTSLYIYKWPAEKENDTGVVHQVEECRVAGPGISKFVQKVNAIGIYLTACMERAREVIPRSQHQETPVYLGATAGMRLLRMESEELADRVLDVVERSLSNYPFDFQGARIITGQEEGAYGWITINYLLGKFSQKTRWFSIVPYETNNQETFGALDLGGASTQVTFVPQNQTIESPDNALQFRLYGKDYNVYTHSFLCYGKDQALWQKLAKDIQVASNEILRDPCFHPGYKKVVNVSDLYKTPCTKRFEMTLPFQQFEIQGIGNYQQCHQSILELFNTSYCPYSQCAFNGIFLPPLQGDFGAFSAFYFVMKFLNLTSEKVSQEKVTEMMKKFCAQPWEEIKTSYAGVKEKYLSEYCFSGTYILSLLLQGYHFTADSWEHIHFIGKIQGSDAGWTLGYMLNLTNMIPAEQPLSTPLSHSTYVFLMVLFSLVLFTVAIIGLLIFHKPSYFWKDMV
Protocol: Mutants were transfected in Hek-293T cells, as shown in the table 1, using numbering of SEQ ID NO: 2. […] Mutant 19 includes substitutions at residues R138, M139 and E142.
Mutants were transfected in Hek-293T cells, as shown in the table 1, using numbering of SEQ ID NO: 2. Dose-ranges of test antibodies (10-2.5-0.625-0.1563-0.0391-0.0098-0.0024-0.0006 μg/ml) are tested on the 20 generated mutants by flow cytometry.

[1] = biological target: T2, human CD39 (NTPDase1, ENTPD1), membrane-bound, on cells (human, UniProt P49961 1-510); test: flow cytometry titration on CHO cells expressing human CD39 (panel CHO-huCD39)
T2 construct: Expressed on CHO cells, Hek-293T cells (wild type) or endogenous on Ramos cells; also called huCD39; CHO-huCD39
T2 sequence: T1 chain with A87K, A100E, A107D
Protocol: Cells were incubated with various concentration of unlabeled anti-CD39 antibody from 30 μg/ml to 5×10⁻⁴ μg/ml, for 30 minutes at 4° C. After washes, cells were incubated with Goat anti-mouse H+L labeled secondary antibody for 30 min at 4° C.

[2] = biological target: T3, Human CD39-L2, also known as NTPDase6 or ENTPD6 (human, UniProt O75354 61-484, limits assumed); test: ELISA on coated recombinant human CD39-L2 (panel huCD39 L2)
T3 construct: Recombinant protein coated in ELISA
T3 sequence: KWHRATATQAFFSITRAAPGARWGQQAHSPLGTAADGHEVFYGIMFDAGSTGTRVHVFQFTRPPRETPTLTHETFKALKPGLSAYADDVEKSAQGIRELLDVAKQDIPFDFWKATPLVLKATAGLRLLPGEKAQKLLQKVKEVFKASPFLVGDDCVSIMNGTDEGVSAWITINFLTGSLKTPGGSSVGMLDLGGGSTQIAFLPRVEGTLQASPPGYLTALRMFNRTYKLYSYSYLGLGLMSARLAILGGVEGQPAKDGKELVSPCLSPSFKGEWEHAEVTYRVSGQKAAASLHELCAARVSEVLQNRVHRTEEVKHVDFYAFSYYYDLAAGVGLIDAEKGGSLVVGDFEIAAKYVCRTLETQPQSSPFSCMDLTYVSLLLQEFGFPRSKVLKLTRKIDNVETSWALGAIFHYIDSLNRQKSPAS
Protocol: (§1) Wells were washed in TBS Tween 20, and further saturated 2H at RT in TBS Blocking buffer. Dose range concentration of primary antibody was incubated in TBS blocking buffer for 2 h at RT. Wells were washed in TBS Tween 20. […] Optical density was measured on Enspire™ at OD=450.

[3] = biological target: T4, Human CD39-L4, also known as NTPDase5 or ENTPD5 (human, UniProt O75356 25-428); test: ELISA on coated recombinant human CD39-L4 (panel huCD39 L4)
T4 construct: Recombinant protein coated in ELISA
T4 sequence: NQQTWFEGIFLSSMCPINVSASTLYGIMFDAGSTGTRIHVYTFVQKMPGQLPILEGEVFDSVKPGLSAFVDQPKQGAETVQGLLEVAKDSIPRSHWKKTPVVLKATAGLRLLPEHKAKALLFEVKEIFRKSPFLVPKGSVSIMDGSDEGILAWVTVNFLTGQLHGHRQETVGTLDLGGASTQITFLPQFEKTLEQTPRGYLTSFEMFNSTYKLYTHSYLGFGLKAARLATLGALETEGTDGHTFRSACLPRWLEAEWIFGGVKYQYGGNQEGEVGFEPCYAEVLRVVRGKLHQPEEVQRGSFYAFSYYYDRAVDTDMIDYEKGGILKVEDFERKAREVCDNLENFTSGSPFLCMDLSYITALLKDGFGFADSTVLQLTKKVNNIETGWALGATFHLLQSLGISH
Protocol: as §1

Median : Comp-Alexa Fluor 647-A (CD39 mutant 15): 6360
EC50 (read off the curve) [1]: ~0.2 µg/mL
binding result [2]: no binding (tested: about 50 µg/ml)
binding result [3]: no binding (tested: about 50 µg/ml)
B1: antibody I-394 (antibody, human IgG1, kappa, V domains shown)
VH: EVQLQQSGPELVKPGASVKMSCKASGYTFTDYNMHWVKQSHGRTLEWIGYIVPLNGGSTFNQKFKGRATLTVNTSSRTAYMELRSLTSEDSAAYYCARGGTRFAYWGQGTLVTVSA
VL: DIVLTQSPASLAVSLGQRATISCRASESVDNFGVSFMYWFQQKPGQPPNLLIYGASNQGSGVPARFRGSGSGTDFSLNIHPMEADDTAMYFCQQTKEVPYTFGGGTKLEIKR
